Measurements taken from patent US10745460B2, “Peptides and combination of peptides for use in immunotherapy against various tumors” (Immatics Biotechnologies GmbH, priority 2015, dated 2020).

biological target: HLA-A*02:01 (Homo sapiens, UniProt P04439, D140Y/D185E/D98H/E176V/E277Q/G131W/G231S/I119V/I121R/I166T/I218V/L300P/L318F/N151K/N90K/P208A/P217A/Q86G/Q94H/R138H/R169H/T345S); test: MHC binding assay: UV-ligand exchange with β2m ELISA (peptide exchange yield); conditions: binding to HLA-A*02:01 evaluated by peptide exchange yield (UV-ligand exchange, β2m ELISA)
Summary of the method: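 Exchange yield, UV-ligand exchange: 100-fold diluted samples on streptavidin plates, 1 h at 37 °C; HRP anti-β2m 1 h at 37 °C; TMB read at 450 nm.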

Peptide exchange | Substance
+++ (≥50 = +++) | 276 (RMPTVLQCV; listed as Homo sapiens) [compound 276]
+++ (≥50 = +++) | 277 (KLQEELNKV; listed as Homo sapiens) [compound 277]
+++ (≥50 = +++) | 278 (VLEDKVLSV; listed as Homo sapiens) [compound 278]
+++ (≥50 = +++) | 280 (HLWGHALFL; listed as Homo sapiens) [compound 280]
+++ (≥50 = +++) | 283 (ALSELLQQV; listed as Homo sapiens) [compound 283]

Further lines, the substance ahead of its results:

Substance | Peptide exchange
274 (TLYNPERTITV; listed as Homo sapiens) [compound 274] | +++ (≥50 = +++)
275 (AVPPPPSSV; listed as Homo sapiens) [compound 275] | ++ (≥20% = ++)
279 (VLMDEGAVLTL; listed as Homo sapiens) [compound 279] | ++ (≥20% = ++)
281 (LLLESDPKVYSL; listed as Homo sapiens) [compound 281] | ++ (≥20% = ++)
282 (SLYALHVKA; listed as Homo sapiens) [compound 282] | ++ (≥20% = ++)
284 (KLMDPGSLPPL; listed as Homo sapiens) [compound 284] | ++ (≥20% = ++)
285 (MLLDTVQKV; listed as Homo sapiens) [compound 285] | +++ (≥50 = +++)
286 (FLTEMVHFI; listed as Homo sapiens) [compound 286] | +++ (≥50 = +++)

tested on: CD8+ T cells; test: In vitro T-cell priming assay with aAPCs loaded with peptide/MHC complexes and anti-CD28 antibody (in vitro immunogenicity); format: cell-based, human; conditions: percentage of positive donors, healthy HLA-A*02 donors
Text: In order to obtain information regarding the immunogenicity of the TUMAPs of the present invention, the inventors performed investigations using an in vitro T-cell priming assay based on repeated stimulations of CD8+ T cells with artificial antigen presenting cells (aAPCs) loaded with peptide/MHC complexes and anti-CD28 antibody.
In order to perform in vitro stimulations by artificial antigen presenting cells loaded with peptide-MHC complex (pMHC) and anti-CD28 antibody, the inventors first isolated CD8+ T cells from fresh HLA-A*02 leukapheresis products via positive selection using CD8 microbeads (Miltenyi Biotec, Bergisch-Gladbach, Germany) of healthy donors obtained from the University clinics Mannheim, Germany, after informed consent. […] Generation of pMHC/anti-CD28 coated beads, T-cell stimulations and readout was performed in a highly defined in vitro system using four different pMHC molecules per stimulation condition and 8 different pMHC molecules per readout condition. […]
800.000 beads/200 μl were coated in 96-well plates in the presence of 4×12.5 ng different biotin-pMHC, washed and 600 ng biotin anti-CD28 were added subsequently in a volume of 200 μl. […] Peptide specific cells were calculated as percentage of total CD8+ cells. […] In vitro priming of specific multimer+ CD8+ lymphocytes was detected by comparing to negative control stimulations. […]

Substance | donors
288 (SLYKGLLSV; listed as Homo sapiens) [compound 288] | ++++ (>=70% = ++++)

same assay, conditions: percentage of positive wells, healthy HLA-A*02 donors

Substance | wells
287 (KIQEILTQV; listed as Homo sapiens) [compound 287] | + (<20% = +)
